In US20230250154A1 (CYTONICS, published 2023):

T1: MMP1 (human, UniProt P03956 100-469, limits assumed)
T1 sequence (looked up): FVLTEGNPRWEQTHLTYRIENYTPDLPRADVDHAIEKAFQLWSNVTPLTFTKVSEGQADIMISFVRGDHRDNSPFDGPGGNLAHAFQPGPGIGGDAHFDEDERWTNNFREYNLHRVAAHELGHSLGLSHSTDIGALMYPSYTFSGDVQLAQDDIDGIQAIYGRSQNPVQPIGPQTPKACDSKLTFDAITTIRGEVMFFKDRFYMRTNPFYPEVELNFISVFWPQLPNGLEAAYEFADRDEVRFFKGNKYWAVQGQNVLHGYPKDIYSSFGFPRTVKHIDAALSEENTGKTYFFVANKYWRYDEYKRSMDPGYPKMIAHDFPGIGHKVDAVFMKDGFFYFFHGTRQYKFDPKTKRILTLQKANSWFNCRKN

T2: MMP2 (human, UniProt P08253 110-660, limits assumed)
T2 sequence (looked up): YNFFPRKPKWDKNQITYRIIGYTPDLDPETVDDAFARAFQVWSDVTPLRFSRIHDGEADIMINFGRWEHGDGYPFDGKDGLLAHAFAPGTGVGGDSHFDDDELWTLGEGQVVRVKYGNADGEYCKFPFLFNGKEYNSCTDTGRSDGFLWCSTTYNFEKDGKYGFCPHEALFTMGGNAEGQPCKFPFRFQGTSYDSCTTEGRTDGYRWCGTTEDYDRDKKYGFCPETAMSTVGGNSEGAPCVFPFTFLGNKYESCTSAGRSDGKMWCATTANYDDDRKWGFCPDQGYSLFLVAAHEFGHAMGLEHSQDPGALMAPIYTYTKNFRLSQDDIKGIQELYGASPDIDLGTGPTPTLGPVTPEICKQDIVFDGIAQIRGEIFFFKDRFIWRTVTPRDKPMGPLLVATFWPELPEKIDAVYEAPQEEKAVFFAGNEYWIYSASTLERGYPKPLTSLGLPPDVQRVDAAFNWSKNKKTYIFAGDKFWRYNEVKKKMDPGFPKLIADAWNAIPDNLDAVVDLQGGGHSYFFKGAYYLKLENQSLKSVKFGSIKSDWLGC

T3: ADAMTS5 (human, UniProt Q9UNA0 262-622, limits assumed)
T3 sequence (looked up): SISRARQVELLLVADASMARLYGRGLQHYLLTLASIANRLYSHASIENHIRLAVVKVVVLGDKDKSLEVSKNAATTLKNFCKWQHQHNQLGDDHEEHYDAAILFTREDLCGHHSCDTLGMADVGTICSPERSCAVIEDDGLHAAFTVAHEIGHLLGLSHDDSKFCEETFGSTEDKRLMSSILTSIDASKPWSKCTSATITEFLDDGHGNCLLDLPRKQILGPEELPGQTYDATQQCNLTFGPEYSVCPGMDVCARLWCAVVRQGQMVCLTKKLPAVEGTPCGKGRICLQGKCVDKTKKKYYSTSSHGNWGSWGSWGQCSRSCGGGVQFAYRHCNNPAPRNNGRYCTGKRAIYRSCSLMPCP

T4: ADAMTS4 (human, UniProt O75173 213-685, limits assumed)
T4 sequence (looked up): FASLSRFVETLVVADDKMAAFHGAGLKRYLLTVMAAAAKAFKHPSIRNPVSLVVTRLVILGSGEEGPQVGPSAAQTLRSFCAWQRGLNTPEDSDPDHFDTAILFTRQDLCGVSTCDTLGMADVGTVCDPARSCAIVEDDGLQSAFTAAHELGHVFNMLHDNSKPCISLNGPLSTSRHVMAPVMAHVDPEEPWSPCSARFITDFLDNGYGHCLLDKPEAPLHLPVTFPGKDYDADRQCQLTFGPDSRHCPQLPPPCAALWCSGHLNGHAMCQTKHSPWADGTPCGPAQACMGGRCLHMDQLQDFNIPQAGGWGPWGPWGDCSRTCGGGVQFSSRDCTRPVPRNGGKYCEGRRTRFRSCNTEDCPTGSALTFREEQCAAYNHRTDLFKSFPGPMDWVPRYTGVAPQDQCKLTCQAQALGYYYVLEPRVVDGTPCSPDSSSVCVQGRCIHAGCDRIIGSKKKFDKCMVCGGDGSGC

B1: Variant A2M, bait region SEQ ID NO 84 (other)
chain: SVSGKPQYMVLVPSLLHTETTEKGCVLLSYLNETVTVSASLESVRGNRSLFTDLEAENDVLHCVAFAVPKSSSNEEVMFLTVQVKGPTQEFKKRTTVMVKNEDSLVFVQTDKSIYKPGQTVKFRVVSMDENFHPLNELIPLVYIQDPKGNRIAQWQSFQLEGGLKQFSFPLSSEPFQGSYKVVVQKKSGGRTEHPFTVEEFVLPKFEVQVTVPKIITILEEEMNVSVCGLYTYGKPVPGHVTVSICRKYSDASDCHGEDSQAFCEKFSGQLNSHGCFYQQVKTKVFQLKRKEYEMKLHTEAQIQEEGTVVELTGRQSSEITRTITKLSFVKVDSHFRQGIPFFGQVRLVDGKGVPIPNKVIFIRGNEANYYSNATTDEHGLVQFSINTTNVMGTSLTVRVNYKDRSPCYGYQWVSEEHEEAHHTAYLVFSPSKSFVHLEPMSHELPCGHTQTVQAHYILNGGTLLGLKKLSFYYLIMAKGGIVRTGTHGLLVKQEDMKGHFSISIPVKSDIAPVARLLIYAVLPTGDVIGDSAKYDVENCLANKVDLSFSPSQSLPASHAHLRVTAAPQSVCALRAVDQSVLLMKPDAELSASSVYNLLPEKDLTGFPGPLNDQDDEDCINRHNVYINGITYTPVSSTNEKDMYSFLEDMGLKAFTNSKIRKPKMCPQLEQYEMHGPEGLRVGKEEEGLGSIPENFFGVSELEGRGSKLRKYFPETWIWDLVVVNSAGVAEVGVTVPDTITEWKAGAFCLSEDAGLGISSTASLRAFQPFFVELTMPYSVIRGEAFTLKATVLNYLPKCIRVSVQLEASPAFLAVPVEKEQAPHCICANGRQTVSWAVTPKSLGNVNFTVSAEALESQELCGTEVPSVPEHGRKDTVIKPLLVEPEGLEKETTFNSLLCPSGGEVSEELSLKLPPNVVEESARASVSVLGDILGSAMQNTQNLLQMPYGCGEQNMVLFAPNIYVLDYLNETQQLTPEIKSKAIGYLNTGYQRQLNYKHYDGSYSTFGERYGRNQGNTWLTAFVLKTFAQARAYIFIDEAHITQALIWLSQRQKDNGCFRSSGSLLNNAIKGGVEDEVTLSAYITIALLEIPLTVTHPVVRNALFCLESAWKTAQEGDHGSHVYTKALLAYAFALAGNQDKRKEVLKSLNEEAVKKDNSVHWERPQKPKAPVGHFYEPQAPSAEVEMTSYVLLAYLTAQPAPTSEDLTSATNIVKWITKQQNAQGGFSSTQDTVVALHALSKYGAATFTRTGKAAQVTIQSSGTFSSKFQVDNNNRLLLQQVSLPELPGEYSMKVTGEGCVYLQTSLKYNILPEKEEFPFALGVQTLPQTCDEPKAHTSFQISLSVSYTGSRSASNMAIVDVKMVSGFIPLKPTVKMLERSNHVSRTEVSSNHVLIYLDKVSNQTLSLFFTVLQDVPVRDLKPAIVKVYDYYETDEFAIAEYNAPCSKDLGNADYKDDDDKGASHHHHHH
B2: Variant A2M, bait region SEQ ID NO 90 (other)
chain: SVSGKPQYMVLVPSLLHTETTEKGCVLLSYLNETVTVSASLESVRGNRSLFTDLEAENDVLHCVAFAVPKSSSNEEVMFLTVQVKGPTQEFKKRTTVMVKNEDSLVFVQTDKSIYKPGQTVKFRVVSMDENFHPLNELIPLVYIQDPKGNRIAQWQSFQLEGGLKQFSFPLSSEPFQGSYKVVVQKKSGGRTEHPFTVEEFVLPKFEVQVTVPKIITILEEEMNVSVCGLYTYGKPVPGHVTVSICRKYSDASDCHGEDSQAFCEKFSGQLNSHGCFYQQVKTKVFQLKRKEYEMKLHTEAQIQEEGTVVELTGRQSSEITRTITKLSFVKVDSHFRQGIPFFGQVRLVDGKGVPIPNKVIFIRGNEANYYSNATTDEHGLVQFSINTTNVMGTSLTVRVNYKDRSPCYGYQWVSEEHEEAHHTAYLVFSPSKSFVHLEPMSHELPCGHTQTVQAHYILNGGTLLGLKKLSFYYLIMAKGGIVRTGTHGLLVKQEDMKGHFSISIPVKSDIAPVARLLIYAVLPTGDVIGDSAKYDVENCLANKVDLSFSPSQSLPASHAHLRVTAAPQSVCALRAVDQSVLLMKPDAELSASSVYNLLPEKDLTGFPGPLNDQDDEDCINRHNVYINGITYTPVSSTNEKDMYSFLEDMGLKAFTNSKIRKPKMCPQLEQYEMHGPEGLRVGSELEGRGSFYESDVMGRGHARLVHVEEPHTKLLRKYFPETWIWDLVVVNSAGVAEVGVTVPDTITEWKAGAFCLSEDAGLGISSTASLRAFQPFFVELTMPYSVIRGEAFTLKATVLNYLPKCIRVSVQLEASPAFLAVPVEKEQAPHCICANGRQTVSWAVTPKSLGNVNFTVSAEALESQELCGTEVPSVPEHGRKDTVIKPLLVEPEGLEKETTFNSLLCPSGGEVSEELSLKLPPNVVEESARASVSVLGDILGSAMQNTQNLLQMPYGCGEQNMVLFAPNIYVLDYLNETQQLTPEIKSKAIGYLNTGYQRQLNYKHYDGSYSTFGERYGRNQGNTWLTAFVLKTFAQARAYIFIDEAHITQALIWLSQRQKDNGCFRSSGSLLNNAIKGGVEDEVTLSAYITIALLEIPLTVTHPVVRNALFCLESAWKTAQEGDHGSHVYTKALLAYAFALAGNQDKRKEVLKSLNEEAVKKDNSVHWERPQKPKAPVGHFYEPQAPSAEVEMTSYVLLAYLTAQPAPTSEDLTSATNIVKWITKQQNAQGGFSSTQDTVVALHALSKYGAATFTRTGKAAQVTIQSSGTFSSKFQVDNNNRLLLQQVSLPELPGEYSMKVTGEGCVYLQTSLKYNILPEKEEFPFALGVQTLPQTCDEPKAHTSFQISLSVSYTGSRSASNMAIVDVKMVSGFIPLKPTVKMLERSNHVSRTEVSSNHVLIYLDKVSNQTLSLFFTVLQDVPVRDLKPAIVKVYDYYETDEFAIAEYNAPCSKDLGNADYKDDDDKGASHHHHHH

Legend:
Assay in all cases: cell-based or functional assay
[1] = biological target: T1, MMP1
[2] = biological target: MMP12 (human, UniProt P39900 106-470, limits assumed)
[3] = biological target: MMP9 (human, UniProt P14780 107-707, limits assumed)
[4] = biological target: T2, MMP2
[5] = biological target: MMP13 (human, UniProt P45452 104-471, limits assumed)
[6] = biological target: MMP8 (human, UniProt P22894 101-467, limits assumed)
[7] = biological target: MMP3 (human, UniProt P08254 100-477, limits assumed)
[8] = biological target: T3, ADAMTS5
[9] = biological target: T4, ADAMTS4
[10] = biological target: Elastase
[11] = biological target: bovine trypsin (bovine, UniProt P00760 24-246)
[12] = biological target: chymotrypsin

Sequence of MMP3 (P08254 100-477 limits assumed): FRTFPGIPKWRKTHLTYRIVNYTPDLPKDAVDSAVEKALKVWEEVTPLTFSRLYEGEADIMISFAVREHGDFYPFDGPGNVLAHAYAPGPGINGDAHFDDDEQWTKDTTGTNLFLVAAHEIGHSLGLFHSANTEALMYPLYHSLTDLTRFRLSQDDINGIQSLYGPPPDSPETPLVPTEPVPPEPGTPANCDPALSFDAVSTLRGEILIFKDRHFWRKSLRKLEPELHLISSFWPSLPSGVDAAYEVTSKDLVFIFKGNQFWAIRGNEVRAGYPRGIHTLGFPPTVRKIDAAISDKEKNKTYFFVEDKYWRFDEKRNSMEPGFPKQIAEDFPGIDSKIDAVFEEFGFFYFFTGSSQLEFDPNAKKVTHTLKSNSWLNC
Sequence of MMP8 (P22894 101-467 limits assumed): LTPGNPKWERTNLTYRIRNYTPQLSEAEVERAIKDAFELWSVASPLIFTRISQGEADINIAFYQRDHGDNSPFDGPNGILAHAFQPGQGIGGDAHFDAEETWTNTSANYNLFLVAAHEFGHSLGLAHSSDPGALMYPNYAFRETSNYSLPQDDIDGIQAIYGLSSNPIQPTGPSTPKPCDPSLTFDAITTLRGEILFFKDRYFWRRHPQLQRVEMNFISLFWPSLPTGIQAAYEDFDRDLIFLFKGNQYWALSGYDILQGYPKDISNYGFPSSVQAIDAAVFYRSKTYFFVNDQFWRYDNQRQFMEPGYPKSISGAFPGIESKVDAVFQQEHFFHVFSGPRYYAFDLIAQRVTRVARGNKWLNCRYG
Sequence of MMP9 (P14780 107-707 limits assumed): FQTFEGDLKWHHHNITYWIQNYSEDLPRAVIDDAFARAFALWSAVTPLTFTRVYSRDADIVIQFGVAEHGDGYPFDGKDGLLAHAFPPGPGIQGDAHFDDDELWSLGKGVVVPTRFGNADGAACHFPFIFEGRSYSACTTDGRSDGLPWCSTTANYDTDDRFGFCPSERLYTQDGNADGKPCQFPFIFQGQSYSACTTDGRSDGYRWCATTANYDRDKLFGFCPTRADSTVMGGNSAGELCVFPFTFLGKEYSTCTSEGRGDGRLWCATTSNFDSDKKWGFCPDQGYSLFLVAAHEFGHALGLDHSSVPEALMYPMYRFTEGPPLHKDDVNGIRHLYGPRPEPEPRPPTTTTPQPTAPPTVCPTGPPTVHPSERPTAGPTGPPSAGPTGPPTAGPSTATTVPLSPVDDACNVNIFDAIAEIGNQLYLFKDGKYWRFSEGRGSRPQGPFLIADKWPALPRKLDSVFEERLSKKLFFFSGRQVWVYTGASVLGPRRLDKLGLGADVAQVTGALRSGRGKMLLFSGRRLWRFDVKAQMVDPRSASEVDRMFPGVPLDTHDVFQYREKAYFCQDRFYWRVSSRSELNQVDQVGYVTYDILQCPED
Sequence of bovine trypsin (P00760 24-246): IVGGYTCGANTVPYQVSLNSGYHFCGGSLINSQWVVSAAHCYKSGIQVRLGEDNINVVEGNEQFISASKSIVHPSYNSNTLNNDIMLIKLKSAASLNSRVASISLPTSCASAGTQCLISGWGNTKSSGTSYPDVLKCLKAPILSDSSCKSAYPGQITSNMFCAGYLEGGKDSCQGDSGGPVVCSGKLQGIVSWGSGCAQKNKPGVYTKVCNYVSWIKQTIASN
Sequence of MMP12 (P39900 106-470 limits assumed): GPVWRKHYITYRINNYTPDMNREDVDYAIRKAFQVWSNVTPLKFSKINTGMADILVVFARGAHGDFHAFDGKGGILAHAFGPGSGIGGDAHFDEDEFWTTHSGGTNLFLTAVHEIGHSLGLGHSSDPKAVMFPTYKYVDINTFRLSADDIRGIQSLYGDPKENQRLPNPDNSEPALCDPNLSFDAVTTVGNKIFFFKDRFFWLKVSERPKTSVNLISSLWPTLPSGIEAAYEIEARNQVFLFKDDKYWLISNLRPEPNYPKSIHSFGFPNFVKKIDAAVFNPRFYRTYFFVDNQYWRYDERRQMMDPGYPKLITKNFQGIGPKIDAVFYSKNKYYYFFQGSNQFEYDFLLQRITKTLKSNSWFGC

Binder | Protease Inhibition (% of WT) [1] | Protease Inhibition (% of WT) [2] | Protease Inhibition (% of WT) [3] | Protease Inhibition (% of WT) [4] | Protease Inhibition (% of WT) [5] | Protease Inhibition (% of WT) [6] | Protease Inhibition (% of WT) [7] | Protease Inhibition (% of WT) [8] | Protease Inhibition (% of WT) [9] | Protease Inhibition (% of WT) [10] | Protease Inhibition (% of WT) [11] | Protease Inhibition (% of WT) [12]
B1 | 180 % of WT | 100 % of WT | 60 % of WT | 120 % of WT | 720 % of WT | 350 % of WT | 170 % of WT | 250 % of WT | 70 % of WT | 75 % of WT | 100 % of WT | 71 % of WT
B2 | 50 % of WT | 100 % of WT | 100 % of WT | 110 % of WT | 700 % of WT | 110 % of WT | 110 % of WT | 350 % of WT | 70 % of WT | 550 % of WT | 100 % of WT | 80 % of WT
